Test results published in the supplement of paper PMC10567573.

B1: C9orf9 (parent)
chain: LTKASLKPRGCSKPPWRPPGGKL

Variants of: B1
Experiment: protein stability index of a GFP-peptide fusion (GPS, HEK-293T) (PSI 1-6); higher = more stable
Conditions: c terminus: native
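Also: lentivirally expressed fusions sorted by FACS into six bins by GFP to DsRed ratio, PSI derived from sequencing read proportions per bin multiplied by bin number.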

Protein stability index, by site and new letter:
G21: P 2.03; R 1.75; Y 2.35; W 2.02; A 1.86; V 3.39; K 4.05
K22: Y 3.71; V 4.26; C 3.7; S 2.67; M 2.73; F 2.03; N 3.08; Q 3.53; G 2.1
G20: F 3.03; H 3.77; S 2.76; V 3.83; Y 2.56; R 2.18; I 2.42; K 3.36; N 2.27; M 2.13
L23: N 1.92; H 2.48; C 1.68; Q 2.91; M 2.1; W 1.03; P 3.08; F 1.24; Y 2.13; R 3.08
